Ends that are not written are not given here.
B1: aNRP2-405v2 (antibody, V domains shown)
VH: EVMLVESGGGLVKPGGSLKLSCAASGFTFRRYAMSWVRQTPEKGLEWVATITSGGSYTYYLDSVKGRITISRDNAKNTLYLQMSSLRSEDTAMYYCARHGIYGGFDYWGQGTTLTVSS
VL: DVLMTQTPLSLPVSLGDQASISCRSSQSIVHSDGNTYLEWYLQKPGQSPNLLIYKVSNRFSGVPDRFSGSGSGTDFTLKISRVEAEDLGIYYCFQGSHVPFTFGSGTKLEIK
notes: Mouse monoclonal
B2: aNRP2-403v2 (antibody, V domains shown)
VH: QVQLQQPGAELVKPGASVKLSCKASGYTFTSYWMHWVKQRPGRGLEWIGRIDPNSGDTKYNEKFKSKATLTVDKPSSTAYMQVSSLTSEDSAVYYCARSYDYALEYWGQGTSVTVSS
VL: DVVMTQTPLSLPVSLGDQASISCRSSQSLVHSNGNTYLHWFLQKPGQSPNLLIYKVSNRFSGVPDRFSGSGSGTDFTLKISRVEAEDLGVYFCSQNTRVPRTFGGGTKLEIK
notes: Mouse monoclonal
B3: aNRP2-408v2 (antibody, V domains shown)
VH: EVKLVESGGGLVKPGGSLKLSCAASGFTFSSYAMSWVRQTPEKRLEWVASISRGSITYYPDSVKGRFTISRDNAGNILYLQMSSLRSEDTAMYYCAREYYYAMDYWGQGTSVTVSS
VL: DIQMTQSPSSLSASLGERVSLTCRASQDIGSRLNWLQQEPDGTIKRLIYATSSLDSGVPKRFSGSRSGSDYSLTISSLESEDFVDYYCLQYASSPYTFGGGTKLEIK
notes: Mouse monoclonal
B4: aNRP2-409v3 (antibody, V domains shown)
VH: EVQFVETGGGLVQPKGSLKLSCAASGFTFNTNAMNWVRQAPGKGLEWVARIRTKSNNYATYYADSVKDRFTISRDDSQNILYLQMNNLKTEDTAMYYCVTLDSSGYVWFAYWGQGTLVTVSA
VL: B3 VL
notes: Mouse monoclonal; also called 409 v2; aNRP2-409v2

Assays:
NRP2v3 = biological target: T1, NRP2v3; assay: flow cytometry, Expi293F cells transfected with the target, fluorescent anti-mouse secondary; MFI signal relative to mock-transfected cells
T1 construct: not the NanoLuc-tagged construct m33; also called human NRP2 v3 expressed on Expi293F cells; NRP2a v3
T1 chain: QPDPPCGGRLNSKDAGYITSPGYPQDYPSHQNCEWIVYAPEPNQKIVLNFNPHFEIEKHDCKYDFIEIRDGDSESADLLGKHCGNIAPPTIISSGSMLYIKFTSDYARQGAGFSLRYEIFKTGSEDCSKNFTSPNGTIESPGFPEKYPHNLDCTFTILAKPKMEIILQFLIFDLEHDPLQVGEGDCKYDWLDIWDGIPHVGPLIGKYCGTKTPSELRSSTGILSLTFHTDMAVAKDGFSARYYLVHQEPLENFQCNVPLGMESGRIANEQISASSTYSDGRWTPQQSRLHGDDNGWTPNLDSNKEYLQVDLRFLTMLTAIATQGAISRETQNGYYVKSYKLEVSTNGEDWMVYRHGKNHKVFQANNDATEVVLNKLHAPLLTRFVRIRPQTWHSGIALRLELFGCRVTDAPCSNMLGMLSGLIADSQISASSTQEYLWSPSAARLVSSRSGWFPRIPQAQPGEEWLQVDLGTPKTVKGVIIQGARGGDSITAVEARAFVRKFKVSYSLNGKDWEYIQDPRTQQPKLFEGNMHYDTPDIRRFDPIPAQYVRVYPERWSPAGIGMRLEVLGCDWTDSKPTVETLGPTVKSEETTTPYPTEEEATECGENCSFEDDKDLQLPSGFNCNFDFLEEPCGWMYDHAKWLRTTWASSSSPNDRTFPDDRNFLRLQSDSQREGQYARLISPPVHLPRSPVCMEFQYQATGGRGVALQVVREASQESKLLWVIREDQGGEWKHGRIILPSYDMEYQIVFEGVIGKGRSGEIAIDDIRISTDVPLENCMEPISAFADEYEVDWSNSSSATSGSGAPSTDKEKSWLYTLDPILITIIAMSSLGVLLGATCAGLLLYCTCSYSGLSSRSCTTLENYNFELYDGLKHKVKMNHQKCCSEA
Experimental: (§1) Signal to noise was calculated as the staining intensity of transfected cells compared to an un-transfected ‘mock’ population.

[1] = biological target: T2, NRP2a_scan 3 peptide (biotinylated) (human, also: biotin-conjugated, site not given here); assay: BLI, peptide on sensor;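 also: octet RED96e biolayer interferometry with biotin-conjugated NRP2 peptides spanning isoform-specific regions (human and mouse) loaded on biosensors, antibodies applied at 50 nM, association read over 300 s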
T2 peptide: HEREGYEDEIDD

[2] = biological target: T3, NRP2a_scan 5 peptide (biotinylated) (human, also: biotin-conjugated, site not given here); assay: BLI, peptide on sensor;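 also: octet RED96e biolayer interferometry with biotin-conjugated NRP2 peptides spanning isoform-specific regions (human and mouse) loaded on biosensors, antibodies applied at 50 nM, association read over 300 s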
T3 peptide: EDEIDDEYEVDW

[3] = biological target: T4, NRP2a_scan 6 peptide (biotinylated) (human, also: biotin-conjugated, site not given here); assay: BLI, peptide on sensor;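 also: octet RED96e biolayer interferometry with biotin-conjugated NRP2 peptides spanning isoform-specific regions (human and mouse) loaded on biosensors, antibodies applied at 50 nM, association read over 300 s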
T4 peptide: IDDEYEVDWSNS

[4] = biological target: T5, Mid-mNRP2A peptide (biotinylated) (mouse, biotin-conjugated, site not stated); assay: BLI, peptide on sensor;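 also: octet RED96e biolayer interferometry with biotin-conjugated NRP2 peptides spanning isoform-specific regions (human and mouse) loaded on biosensors, antibodies applied at 50 nM, association read over 300 s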
T5 peptide: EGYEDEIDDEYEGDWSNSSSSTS

[5] = biological target: T6, Mid-NRP2A peptide (biotinylated) (human, biotin-conjugated, site not stated); assay: BLI, peptide on sensor
T6 peptide: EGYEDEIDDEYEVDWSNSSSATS

[6] = biological target: mNRP2b peptide (biotinylated) (mouse, biotin-conjugated, site not stated); assay: BLI, peptide on sensor
Chain of mNRP2b peptide (biotinylated) (mouse, biotin-conjugated, site not stated) (peptide, as listed by the source): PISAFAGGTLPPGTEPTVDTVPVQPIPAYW

[7] = biological target: T7, NRP2a_scan 1 peptide (biotinylated) (human, also: biotin-conjugated, site not given here); assay: BLI, peptide on sensor
T7 peptide: VDIPEIHEREGY

[8] = biological target: T8, NRP2a_scan 7 peptide (biotinylated) (human, also: biotin-conjugated, site not given here); assay: BLI, peptide on sensor
T8 peptide: EYEVDWSNSSSA

[9] = biological target: T9, NRP2a_scan 4 peptide (biotinylated) (human, also: biotin-conjugated, site not given here); assay: BLI, peptide on sensor
T9 peptide: EGYEDEIDDEYE

[10] = biological target: Short NRP2A peptide (biotinylated) (human, biotin-conjugated, site not stated); assay: BLI, peptide on sensor
[11] = biological target: T10, NRP2a_scan 2 peptide (biotinylated) (human, also: biotin-conjugated, site not given here); assay: BLI, peptide on sensor
T10 peptide: PEIHEREGYEDE

[12] = biological target: T11, mNRP2A peptide (biotinylated) (mouse, biotin-conjugated, site not stated); assay: BLI, peptide on sensor, 50 nM antibody
T11 construct: also called mouse NRP2 isoform a peptide

[13] = biological target: T12, NRP2A peptide (biotinylated) (human, biotin-conjugated, site not stated); assay: BLI, isoform peptide on sensor, 50 nM antibody
T12 construct: also called NPR2A; NRP2a specific peptide

[14] = biological target: T13, human NRP2b expressed on Expi293F cells (human); assay: flow cytometry, Expi293F cells transfected with the target, fluorescent anti-mouse secondary; MFI signal relative to mock-transfected cells
T13 construct: also called full length NRP2b
T13 chain: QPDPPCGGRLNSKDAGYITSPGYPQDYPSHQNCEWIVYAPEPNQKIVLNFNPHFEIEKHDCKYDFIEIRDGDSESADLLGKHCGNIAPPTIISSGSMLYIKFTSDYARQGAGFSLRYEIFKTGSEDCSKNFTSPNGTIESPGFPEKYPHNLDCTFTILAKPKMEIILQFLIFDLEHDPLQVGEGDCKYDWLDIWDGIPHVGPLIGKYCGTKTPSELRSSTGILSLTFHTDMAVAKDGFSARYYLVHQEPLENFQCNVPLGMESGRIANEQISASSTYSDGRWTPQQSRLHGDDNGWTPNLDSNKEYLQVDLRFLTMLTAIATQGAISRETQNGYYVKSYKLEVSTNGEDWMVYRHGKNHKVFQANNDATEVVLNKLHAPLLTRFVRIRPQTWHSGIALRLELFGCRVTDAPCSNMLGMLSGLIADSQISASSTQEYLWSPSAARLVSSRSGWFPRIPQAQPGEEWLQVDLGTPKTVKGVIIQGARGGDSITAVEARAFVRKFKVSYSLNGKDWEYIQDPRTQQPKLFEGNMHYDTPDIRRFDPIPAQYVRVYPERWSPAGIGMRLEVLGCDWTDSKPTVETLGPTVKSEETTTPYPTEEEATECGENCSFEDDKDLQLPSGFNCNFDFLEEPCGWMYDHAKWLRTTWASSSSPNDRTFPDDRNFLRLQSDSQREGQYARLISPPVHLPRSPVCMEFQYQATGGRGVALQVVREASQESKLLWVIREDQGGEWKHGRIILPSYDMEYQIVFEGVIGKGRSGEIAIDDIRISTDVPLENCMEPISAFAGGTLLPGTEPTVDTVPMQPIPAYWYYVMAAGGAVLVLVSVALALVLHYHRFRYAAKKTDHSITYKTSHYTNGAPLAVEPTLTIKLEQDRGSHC
Experimental: as §1

[15] = biological target: T14, NRP2b peptide (biotinylated) (human, biotin-conjugated, site not stated); assay: peptide ELISA
T14 construct: also called NRP2b isoform specific peptide
T14 peptide: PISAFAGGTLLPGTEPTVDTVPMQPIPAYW

[16] = biological target: T3, NRP2a_scan 5 peptide (biotinylated); assay: BLI, peptide on sensor, 50 nM antibody
[17] = biological target: T4, NRP2a_scan 6 peptide (biotinylated); assay: BLI, peptide on sensor, 50 nM antibody
[18] = biological target: T6, Mid-NRP2A peptide (biotinylated); assay: BLI, peptide on sensor, 50 nM antibody
[19] = biological target: T15, human NRP2a v2 expressed on Expi293F cells (human, UniProt O60462 23-931); assay: flow cytometry, Expi293F cells transfected with the target, fluorescent anti-mouse secondary; MFI signal relative to mock-transfected cells
T15 construct: cDNA Origene RCC220706; also called NRP2 v2
Experimental: as §1

Binder	binding result (NRP2v3)	binding result [1]	binding result [2]	binding result [3]	binding result [4]	binding result [5]	binding result [6]	binding result [7]	binding result [8]	binding result [9]	binding result [10]	binding result [11]	binding result [12]	binding result [13]	binding result [14]	binding result [15]	binding result [16]	binding result [17]	binding result [18]	binding result [19]
B1	no binding	no binding (tested: 50 nM)	no binding (tested: 50 nM)	no binding (tested: 50 nM)	no binding (tested: 50 nM)	no binding (tested: 50 nM)	no binding (tested: 50 nM)	no binding (tested: 50 nM)	no binding (tested: 50 nM)	no binding (tested: 50 nM)	no binding (tested: 50 nM)	no binding (tested: 50 nM)	binds	binds	no binding	no binding (tested: <3x blank)	–	–	–	–
B2	–	no binding (tested: 50 nM)	–	–	–	–	no binding (tested: 50 nM)	no binding (tested: 50 nM)	no binding (tested: 50 nM)	no binding (tested: 50 nM)	no binding (tested: 50 nM)	no binding (tested: 50 nM)	–	binds	–	no binding (tested: <3x blank)	binds	binds	binds	–
B3	no binding	no binding (tested: 50 nM)	no binding (tested: 50 nM)	no binding (tested: 50 nM)	no binding (tested: 50 nM)	no binding (tested: 50 nM)	no binding (tested: 50 nM)	no binding (tested: 50 nM)	no binding (tested: 50 nM)	no binding (tested: 50 nM)	no binding (tested: 50 nM)	no binding (tested: 50 nM)	binds	binds	no binding	no binding (tested: <3x blank)	–	–	–	binds
B4	no binding	no binding (tested: 50 nM)	no binding (tested: 50 nM)	no binding (tested: 50 nM)	no binding (tested: 50 nM)	no binding (tested: 50 nM)	no binding (tested: 50 nM)	no binding (tested: 50 nM)	no binding (tested: 50 nM)	no binding (tested: 50 nM)	no binding (tested: 50 nM)	no binding (tested: 50 nM)	–	–	no binding	no binding (tested: <3x blank)	–	–	–	–

— patent US20240417476A1 (ATYR PHARMA, published 2024)
